Measured values from patent US20120134993A1.

Key:
human FGF-9 (human) = human FGF-9 (human) (UniProt P31371); test: cell-based or functional assay
[1] = molecular target: recombinant human FGF-8b (human) (UniProt P55075); test: cell-based or functional assay
[2] = molecular target: recombinant human FGF1 (human) (UniProt P05230); test: cell-based or functional assay
[3] = molecular target: recombinant human FGF2 (human) (UniProt P09038); test: cell-based or functional assay
[4] = molecular target: recombinant human FGF4 (human) (UniProt P08620); test: cell-based or functional assay
Chain of recombinant human FGF4 (human) (P08620 31-206 limits assumed): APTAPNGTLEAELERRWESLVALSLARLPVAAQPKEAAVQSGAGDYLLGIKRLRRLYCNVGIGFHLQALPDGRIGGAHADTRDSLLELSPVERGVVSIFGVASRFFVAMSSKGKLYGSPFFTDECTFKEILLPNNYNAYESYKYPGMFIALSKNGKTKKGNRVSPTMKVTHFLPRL

[5] = molecular target: recombinant human FGF6 (human) (UniProt P10767); test: cell-based or functional assay
Chain of recombinant human FGF6 (human) (P10767 83-208 limits assumed): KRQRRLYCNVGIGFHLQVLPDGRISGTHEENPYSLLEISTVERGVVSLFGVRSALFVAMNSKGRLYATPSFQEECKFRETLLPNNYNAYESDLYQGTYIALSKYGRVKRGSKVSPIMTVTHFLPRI

[6] = molecular target: recombinant human FGF-17 (human) (UniProt O60258); test: direct binding ELISA, FGF-17 coated, FGFR-Fc titrated with heparin, anti-human Fc-HRP
Chain of recombinant human FGF-17 (human) (O60258 23-216 limits assumed): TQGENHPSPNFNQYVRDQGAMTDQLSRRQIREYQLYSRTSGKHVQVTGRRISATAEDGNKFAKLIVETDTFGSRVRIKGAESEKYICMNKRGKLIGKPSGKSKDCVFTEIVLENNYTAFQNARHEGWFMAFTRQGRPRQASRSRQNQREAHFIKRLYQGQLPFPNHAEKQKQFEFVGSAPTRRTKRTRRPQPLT

[7] = molecular target: recombinant human FGF-8b (human) (UniProt P55075); test: direct binding ELISA, FGF-8b coated, FGFR-Fc titrated with heparin, anti-human Fc-HRP
human VEGF-A (human) = human VEGF-A (human) (UniProt P15692); test: SPR (Biacore T100), VEGF-A immobilized, 100 nM VEGFR-2-Fc5 injected, 1:1 dissociation fit
Chain of human VEGF-A (human) (P15692 other isoform, or with tags, fused parts or gaps limits assumed): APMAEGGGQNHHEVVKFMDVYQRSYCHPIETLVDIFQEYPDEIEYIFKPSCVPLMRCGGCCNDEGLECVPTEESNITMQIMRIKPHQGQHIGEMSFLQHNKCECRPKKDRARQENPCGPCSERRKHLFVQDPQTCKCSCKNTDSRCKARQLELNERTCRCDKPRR

Chain of recombinant human FGF2 (human) (P09038 143-288 limits assumed): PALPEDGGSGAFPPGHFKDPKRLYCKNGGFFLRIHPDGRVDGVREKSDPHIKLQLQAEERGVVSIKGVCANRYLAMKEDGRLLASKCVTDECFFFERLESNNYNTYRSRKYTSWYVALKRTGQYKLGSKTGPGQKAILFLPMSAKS
Chain of recombinant human FGF1 (human) (P05230 16-155 limits assumed): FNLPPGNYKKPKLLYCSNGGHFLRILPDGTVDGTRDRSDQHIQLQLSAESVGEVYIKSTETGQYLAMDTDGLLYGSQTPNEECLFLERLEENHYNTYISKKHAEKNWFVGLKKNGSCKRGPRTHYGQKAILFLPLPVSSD
Chain of recombinant human FGF-8b (human) (P55075 other isoform, or with tags, fused parts or gaps limits assumed): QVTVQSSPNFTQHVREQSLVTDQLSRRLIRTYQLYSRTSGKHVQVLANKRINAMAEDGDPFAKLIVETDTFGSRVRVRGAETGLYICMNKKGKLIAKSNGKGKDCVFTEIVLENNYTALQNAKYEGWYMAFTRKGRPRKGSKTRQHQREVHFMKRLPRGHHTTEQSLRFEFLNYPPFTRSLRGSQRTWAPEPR
Chain of human FGFR1-Fc (R&D Systems) (P11362 22-376): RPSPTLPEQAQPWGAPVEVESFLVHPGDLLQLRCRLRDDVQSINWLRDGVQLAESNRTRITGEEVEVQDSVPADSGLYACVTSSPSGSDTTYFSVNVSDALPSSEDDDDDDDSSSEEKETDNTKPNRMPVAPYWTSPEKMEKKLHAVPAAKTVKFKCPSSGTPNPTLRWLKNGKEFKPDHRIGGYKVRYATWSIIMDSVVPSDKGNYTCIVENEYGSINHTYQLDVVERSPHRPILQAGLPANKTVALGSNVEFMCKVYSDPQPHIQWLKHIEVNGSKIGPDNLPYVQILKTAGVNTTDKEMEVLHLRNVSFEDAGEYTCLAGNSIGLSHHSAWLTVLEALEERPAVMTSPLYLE

Substance	Proliferation IC50, FGF-9-stimulated HCO osteoblasts (3H-thymidine) (human FGF-9 (human)) [nM]	Proliferation IC50, FGF8b-stimulated LNCap cells (3H-thymidine) [1] [nM]	IC50, FGF-stimulated HUVEC proliferation (3H-thymidine) [2] [nM]	IC50, FGF-stimulated HUVEC proliferation (3H-thymidine) [3] [nM]	IC50, FGF-stimulated HUVEC proliferation (3H-thymidine) [4] [nM]	IC50, FGF-stimulated HUVEC proliferation (3H-thymidine) [5] [nM]	IC50 [6] [nM]	IC50 [7] [nM]	koff (human VEGF-A (human)) [s⁻¹]
human FGFR3-Fc (R&D Systems) (from UniProt P22607 23-375) (Fc fusion)	0.44	0.79	0.53	5.5	1.06	9.96	30.1	23.4	–
FGFR2alphaIIIc(145-377)(S252W) Fc5, truncated FGFR2-Fc S252W (A2560F) (Fc fusion)	–	0.01	–	–	–	–	–	–	–
human FGFR1-Fc (R&D Systems) (from UniProt P11362 22-376) (Fc fusion)	1.1	–	0.63	0.92	0.53	0.42	–	–	–
FGFR2alphaIIIc(145-377) Fc5, truncated FGFR2-Fc (A2559F) (Fc fusion)	–	0.3	–	–	–	–	–	–	–
FGFR2alphaIIIc(145-377)(P253R) Fc5, truncated FGFR2-Fc P253R (A2561F) (Fc fusion)	–	0.01	–	–	–	–	–	–	–
human FGFR2-Fc (R&D Systems) (from UniProt P21802 22-377) (Fc fusion)	0.49	0.29	0.42	0.85	0.48	0.3	–	–	–
VEGFR-2-Fc5 (from UniProt P0DOX5 218-449) (Fc fusion)	–	–	–	–	–	–	–	–	0.0002
